Drawing on PMC10397247, this text covers interaction score for one molecule.

Experiment in all cases: two-hybrid library CCmax;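 further: natural log of median RNA to DNA barcode read ratio; higher means stronger binding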
Assay [1] deals with T1, APC6088-AA.
T1 chain: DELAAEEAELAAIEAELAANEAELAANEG
As to conditions: mean of both orientations.

The target in assay [2] is T2, APC7524-AA.
T2 chain: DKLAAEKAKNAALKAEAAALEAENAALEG
Conditions: mean of both orientations.

In assay [3] the target is T3, APC9806-AA.
T3 chain: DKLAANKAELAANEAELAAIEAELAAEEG
As to conditions: mean of both orientations.

Assay [4] deals with T4, APC8401-AA.
T4 chain: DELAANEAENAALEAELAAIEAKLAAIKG
As to conditions: mean of both orientations.

The target in assay [5] is T5, APC5531-AA.
T5 chain: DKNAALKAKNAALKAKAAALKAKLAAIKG
As to conditions: mean of both orientations.

Assay [6] addresses T6, APC9141-AA.
T6 chain: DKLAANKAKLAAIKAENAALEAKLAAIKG
As to conditions: mean of both orientations.

Assay [7] addresses T7, APC5009-AA.
T7 chain: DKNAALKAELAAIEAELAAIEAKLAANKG
As to conditions: mean of both orientations.

Assay [8] has as its target T8, APC9291-AA.
T8 chain: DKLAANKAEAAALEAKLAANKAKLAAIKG
Conditions: mean of both orientations.

Assay [9] addresses T9, APC4336-AA.
T9 chain: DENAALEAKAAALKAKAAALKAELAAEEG

For assay [10], the target named is T10, APC8516-AA.
T10 chain: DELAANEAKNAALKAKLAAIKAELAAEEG
Conditions: mean of both orientations.

Assay [11] concerns the target T11, APC542-AA.
T11 chain: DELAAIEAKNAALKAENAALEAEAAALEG
Conditions: mean of both orientations.

The target in assay [12] is T12, APC9182-AA.
T12 chain: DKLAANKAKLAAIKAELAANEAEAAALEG
Conditions: mean of both orientations.

In the case of DENAALEAKAAALKAKAAALKAELAAEEG [APC4336-AA], the interaction score in assay [1] is -1.93; in assay [2], -1.86; in assay [3], -1.53; in assay [4] it was -1.59; in assay [5] it was -2.38; in assay [6], -2.48. Further, the interaction score in assay [7] was 1.2; in assay [8] it was -2.36; in assay [9] it was -3.13; in [10], -1.7; in assay [11], -2.08; in [12] it was -1.89.
